# In patent US20220259296A1 (Boehringer Ingelheim, published 2022):
# B1: M0251 (VHH)
# VHH: EVQLVESGGGLVQAGGSLRLSCVASGHTFGNWAMGWFRQAPGKEREFVGAIRWSVGTTNYRDSVKGRFAISRDNARNTVYLQMNRLKPEDTAVYYCAAGTPFVLARINGYDYWGQGTQVTVSS
# notes: Wild-type llama VHH domain; also called anti-C3 antibody M0251
# B2: M0228 (VHH)
# VHH: EVQLVESGGGLVQAGGSLRLSCAASGRTINDYTMGWFRQAPGKDREFVSAINWRGSSTYYADSVKGRFTISRDNAKKTIYLQMNLLKPEDTAVYYCARQVSPYVELTATAAYWGQGTQVTVSS
# notes: Wild-type llama VHH domain; also called anti-C3 antibody M0228
# B3: M0122 (antibody, V domains shown)
# VH: QSVKESGGRLVTPGTPLTLTCTVSGFSLYNYAMNWVRQAPGKGLEWIGIINTDGNTNYASWAKGRFTISTTSSTTVDLKITSPTTEDTATYFCPRAVGYHHHALDPWGPGTLVTVSS
# VL: ELVLTQSPSVSAALGASAKLTCTLSSAHKTYTIDWYQQQQGEAPRYLMQLKSDGSYTKGTGVPDRFSGSSSGADRYLIIPSVQADDEADYYCGTDYGGGYVFGGGTQLTVTG
# notes: Wild-type rabbit VH/VL from a rabbit scFv phage library; ELISA detection used an anti-human Kappa HRP or an anti-His Tag HRP antibody; also called anti-C3 antibody M0122
# B4: M0123 (antibody, V domains shown)
# VH: QSVKESEGRLVTPGTPLTLTCTASGFTIGSYHMSWVRQAPGKGLEWIGIIYTDGNTDYANWAKGRFTISKTSTTMDLKMTSLTAADTATYFCARRGYADYGYTFNLWGQGTLVTISS
# VL: ELVLTQPASVQVNLGQTVSLTCTADTLSRNYASWYQQKPGQAPVLLIYRDTSRPSGVPDRFSGSSSGNTATLTISGAQAGDEADYYCATGDGSGSSYQFVFGGGTQLTVTG
# notes: Wild-type rabbit VH/VL from a rabbit scFv phage library; A separate 'scFv-derivative of M0123 (26 kDa)' was used only in the Bruch's membrane diffusion test; also called anti-C3 antibody M0123
# B5: M0124 (antibody, V domains shown)
# VH: QSVKESGGRLVTPGTPLTLTCTVSGIDLSRYWMNWVRQAPGKGLEWIGYITTNDKTYYANWAKGRYTISKTSSTTVDLKMTSLTTEDTATYFCARRSSGAYDIWGPGTLVTISS
# VL: QPVLTQSPSASATLGASAKLTCTLSSAHKTYYIEWYQQQQGEAPRYLMQLKSDGTYTKGTGVPDRFSGSSSGADRYLIISSVQAEDEADYICGVTGGNVYVFGGGTQLTVTG
# notes: Wild-type rabbit VH/VL from a rabbit scFv phage library; ELISA detection used an anti-human Kappa HRP or an anti-His Tag HRP antibody; also called anti-C3 antibody M0124
# What was measured:
# [1] = biological target: T1, human complement C3 (human, UniProt P01024 23-1663); experiment: competition ELISA on human C3; competitor: biotinylated M0123 (panel title 'Competition with M0123')
# T1 construct: mature; Native plasma C3 is processed from one precursor into a beta and an alpha chain; also called native human C3; complement component 3
# T1 sequence (P01024 23-1663): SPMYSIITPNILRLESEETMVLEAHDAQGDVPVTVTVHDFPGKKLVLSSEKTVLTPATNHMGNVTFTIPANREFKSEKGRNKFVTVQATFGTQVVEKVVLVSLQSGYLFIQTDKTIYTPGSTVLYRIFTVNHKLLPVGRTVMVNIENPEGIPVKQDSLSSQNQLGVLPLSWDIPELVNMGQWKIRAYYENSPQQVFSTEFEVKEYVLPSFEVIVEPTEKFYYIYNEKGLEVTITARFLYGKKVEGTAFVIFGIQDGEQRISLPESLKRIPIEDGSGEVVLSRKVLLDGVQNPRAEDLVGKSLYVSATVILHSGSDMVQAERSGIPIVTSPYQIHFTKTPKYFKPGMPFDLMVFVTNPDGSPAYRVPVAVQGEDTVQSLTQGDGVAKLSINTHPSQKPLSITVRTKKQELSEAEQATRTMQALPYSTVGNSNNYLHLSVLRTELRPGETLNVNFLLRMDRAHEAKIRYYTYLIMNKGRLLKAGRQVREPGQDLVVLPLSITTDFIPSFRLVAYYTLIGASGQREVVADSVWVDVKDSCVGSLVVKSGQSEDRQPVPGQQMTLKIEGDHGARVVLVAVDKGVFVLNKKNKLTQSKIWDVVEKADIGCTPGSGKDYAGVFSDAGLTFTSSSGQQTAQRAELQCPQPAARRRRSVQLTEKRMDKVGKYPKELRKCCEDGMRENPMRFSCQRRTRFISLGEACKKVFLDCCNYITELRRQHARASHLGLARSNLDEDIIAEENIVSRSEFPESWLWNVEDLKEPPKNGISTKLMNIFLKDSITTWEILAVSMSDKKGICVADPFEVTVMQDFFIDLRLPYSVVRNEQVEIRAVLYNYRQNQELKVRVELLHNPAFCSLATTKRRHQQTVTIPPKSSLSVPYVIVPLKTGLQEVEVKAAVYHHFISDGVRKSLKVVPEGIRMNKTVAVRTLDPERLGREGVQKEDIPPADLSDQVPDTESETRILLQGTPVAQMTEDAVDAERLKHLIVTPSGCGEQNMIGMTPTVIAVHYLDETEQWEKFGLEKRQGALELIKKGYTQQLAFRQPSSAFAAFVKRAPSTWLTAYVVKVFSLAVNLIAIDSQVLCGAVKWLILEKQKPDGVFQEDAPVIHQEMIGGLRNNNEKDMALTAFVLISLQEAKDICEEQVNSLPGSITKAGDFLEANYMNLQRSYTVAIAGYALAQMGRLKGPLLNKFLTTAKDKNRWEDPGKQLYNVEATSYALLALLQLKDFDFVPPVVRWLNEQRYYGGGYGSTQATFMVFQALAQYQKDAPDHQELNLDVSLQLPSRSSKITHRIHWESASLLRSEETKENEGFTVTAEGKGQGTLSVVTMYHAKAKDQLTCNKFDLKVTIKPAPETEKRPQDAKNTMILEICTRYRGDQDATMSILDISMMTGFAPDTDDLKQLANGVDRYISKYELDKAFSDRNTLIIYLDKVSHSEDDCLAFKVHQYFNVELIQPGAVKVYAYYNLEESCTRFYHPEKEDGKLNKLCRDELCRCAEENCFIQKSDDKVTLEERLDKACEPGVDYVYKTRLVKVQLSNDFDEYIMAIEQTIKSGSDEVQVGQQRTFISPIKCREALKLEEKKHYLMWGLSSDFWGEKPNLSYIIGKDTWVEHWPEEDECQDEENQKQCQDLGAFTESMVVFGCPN
# Experimental: (§1) M0251, M0228, M0122, M0123 and M0124 were tested in a pairwise combinatorial manner to identify those that target the same region (epitope) on C3. Briefly, one antibody was labelled via biotinylation and incubated together with other antibody clones in a C3 binding ELISA. Those anti-C3 antibodies that competed for the same binding region were considered to share similar epitopes and therefore to have similar functions. This information enables to reduce the number of potential antibody candidates while maintaining epitope diversity. Out of the five antibodies inhibiting all three complement pathways, M0251, M0228 and M0123 were considered to share the same epitope on C3 (FIG. 7D). Inhibiting leads were assumed to bind three different epitopes on C3 (FIG. 7A-7D).
# [2] = biological target: T2, cynomolgus monkey C3 (cynomolgus monkey (Macaca fascicularis)); experiment: ELISA, cyno C3 captured from cynomolgus serum by coated polyclonal goat antiserum
# T2 construct: mature; Native protein from serum; also called cyno C3; cynomolgus C3
# Experimental: Antibodies identified as capable of inhibiting all three complement pathways were assessed for their ability to bind cynomolgus monkey C3 in ELISA. Briefly, 96 well ELISA plates were coated with polyclonal goat antiserum deemed to be cross-reactive to cyno C3 and followed by a secondary association with a custom preparation of cynomolgus monkey serum (BioIVT, NB-151558). Serial dilutions of the antibody molecules were added to the ELISA plate and antibodies binding to cyno C3 were detected with a rabbit anti-human Kappa HRP antibody (Abcam, ab202549) or a mouse anti-His Tag HRP antibody (R&D Systems, MAB050H). Leads M0122, M0124 and M0251 show binding in a dose response manner to cynomolgus monkey C3.
# [3] = biological target: T1, human complement C3; experiment: cell-based or functional assay
# [4] = biological target: T1, human complement C3; experiment: competition ELISA on human C3; competitor: biotinylated M0251 (panel title 'Competition with M0251')
# Experimental: as §1
# [5] = biological target: T1, human complement C3; experiment: biolayer interferometry, human C3
# [6] = biological target: T3, human complement C3b (human, UniProt P01024 23-667; P01024 749-1663); experiment: direct ELISA, plate coated with purified human C3b
# T3 construct: domain: C3b; Cleavage product of C3 (C3 without C3a)
# T3 sequence (P01024 23-667 limits assumed, chain 1 of 2): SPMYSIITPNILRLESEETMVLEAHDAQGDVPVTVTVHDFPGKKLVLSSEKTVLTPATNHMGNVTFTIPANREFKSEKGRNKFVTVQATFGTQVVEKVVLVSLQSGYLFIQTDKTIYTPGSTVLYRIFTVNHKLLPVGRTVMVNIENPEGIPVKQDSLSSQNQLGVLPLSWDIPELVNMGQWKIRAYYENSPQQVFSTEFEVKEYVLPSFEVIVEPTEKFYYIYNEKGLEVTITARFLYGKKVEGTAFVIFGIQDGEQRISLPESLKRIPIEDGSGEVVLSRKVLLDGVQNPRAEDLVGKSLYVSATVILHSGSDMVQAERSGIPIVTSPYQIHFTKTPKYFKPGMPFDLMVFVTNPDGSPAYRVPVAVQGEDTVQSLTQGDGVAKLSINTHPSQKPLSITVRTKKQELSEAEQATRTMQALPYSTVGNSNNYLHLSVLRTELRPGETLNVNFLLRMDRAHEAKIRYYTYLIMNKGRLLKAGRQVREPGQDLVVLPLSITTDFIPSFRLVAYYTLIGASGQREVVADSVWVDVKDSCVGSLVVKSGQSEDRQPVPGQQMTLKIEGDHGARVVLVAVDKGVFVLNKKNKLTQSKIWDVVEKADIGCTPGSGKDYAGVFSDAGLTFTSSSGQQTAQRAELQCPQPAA
# T3 sequence (P01024 749-1663 limits assumed, chain 2 of 2): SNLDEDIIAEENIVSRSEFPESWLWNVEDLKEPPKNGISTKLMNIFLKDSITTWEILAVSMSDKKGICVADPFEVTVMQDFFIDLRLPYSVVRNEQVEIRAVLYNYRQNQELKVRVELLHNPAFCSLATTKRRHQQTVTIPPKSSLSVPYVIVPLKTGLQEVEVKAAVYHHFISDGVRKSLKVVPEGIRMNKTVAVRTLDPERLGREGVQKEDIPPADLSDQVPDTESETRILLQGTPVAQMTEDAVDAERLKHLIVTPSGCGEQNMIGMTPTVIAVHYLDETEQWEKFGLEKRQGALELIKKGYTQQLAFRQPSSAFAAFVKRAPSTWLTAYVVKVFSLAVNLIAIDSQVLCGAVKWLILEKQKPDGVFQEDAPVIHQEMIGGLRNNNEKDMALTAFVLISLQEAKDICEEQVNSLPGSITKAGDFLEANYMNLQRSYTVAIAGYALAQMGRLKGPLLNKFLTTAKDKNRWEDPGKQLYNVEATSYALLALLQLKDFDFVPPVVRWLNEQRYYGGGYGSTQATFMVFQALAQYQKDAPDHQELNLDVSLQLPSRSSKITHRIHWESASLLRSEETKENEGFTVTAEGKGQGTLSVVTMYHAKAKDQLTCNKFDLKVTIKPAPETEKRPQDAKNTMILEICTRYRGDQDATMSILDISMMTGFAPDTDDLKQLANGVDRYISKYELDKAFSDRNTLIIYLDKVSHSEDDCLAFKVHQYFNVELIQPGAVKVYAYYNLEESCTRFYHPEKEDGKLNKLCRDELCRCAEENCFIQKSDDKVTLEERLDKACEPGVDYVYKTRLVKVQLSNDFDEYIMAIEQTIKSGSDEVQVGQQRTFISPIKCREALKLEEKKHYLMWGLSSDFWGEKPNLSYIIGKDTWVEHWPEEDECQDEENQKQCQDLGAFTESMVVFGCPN
# Experimental: (§2) M0122, M0124 and M0228 were evaluated for their ability to bind both human C3 and C3b in a direct binding ELISA assay (FIG. 8A and FIG. 8B). Briefly, 96 well ELISA plates were coated with purified native human C3 or C3b (Complement Technology, A113 and A114). Serial dilutions of antibody molecules were added to the plate and detected by a rabbit anti-human Kappa HRP antibody (Abcam, ab202549) or a rabbit anti-His Tag HRP antibody (Abcam, ab1187). M0122, M0124 and M0228 show high affinity binding to both human C3 and C3b.
# [7] = biological target: T1, human complement C3; experiment: direct ELISA, plate coated with purified native human C3
# Experimental: as §2
# [8] = biological target: T1, human complement C3; experiment: competition ELISA on human C3; competitor: biotinylated M0122 (panel title 'Competition with M0122')
# Experimental: as §1
Binder,IC50 (read off the curve) [1] [nM],EC50 (read off the curve) [2] [nM],"inhibition of classical, lectin and alternative complement pathways in human serum (Wieslab Complement system Screen, C5b-C9 neoantigen) [3] [%]",IC50 (read off the curve) [4] [nM],Kd [5] [nM],koff [5] [s⁻¹],kon [5] [M⁻¹ s⁻¹],EC50 (read off the curve) [6] [ng/mL],EC50 (read off the curve) [7] [ng/mL],IC50 (read off the curve) [8] [nM]
B1,~20,~5,≥ 90,~4,,,,,,
B2,~2,,≥ 90,,0.199,0.000111,557000,~30,~30,
B3,,~2,≥ 90,,0.0528,4.7e-06,89000,~40,~30,~20
B4,~9,,≥ 90,,,,,,,
B5,,~3,≥ 90,,0.0124,5.18e-05,4.16e+06,~40,~70,
